Laboratory results from patent US9605038B2, “Fusion peptide comprising dhFas-1 domain and MMP substrate and use thereof for preventing and treating rheumatoid arthritis” (Kyungpook National University Industry-Academic Cooperation …, priority 2010, dated 2017).
Numbering of substitutions follows the chain as printed. “Also recorded” adds a separate entry of the source.

T1: MMP2 (Homo sapiens, UniProt P08253)
T1 sequence (P08253 110-660): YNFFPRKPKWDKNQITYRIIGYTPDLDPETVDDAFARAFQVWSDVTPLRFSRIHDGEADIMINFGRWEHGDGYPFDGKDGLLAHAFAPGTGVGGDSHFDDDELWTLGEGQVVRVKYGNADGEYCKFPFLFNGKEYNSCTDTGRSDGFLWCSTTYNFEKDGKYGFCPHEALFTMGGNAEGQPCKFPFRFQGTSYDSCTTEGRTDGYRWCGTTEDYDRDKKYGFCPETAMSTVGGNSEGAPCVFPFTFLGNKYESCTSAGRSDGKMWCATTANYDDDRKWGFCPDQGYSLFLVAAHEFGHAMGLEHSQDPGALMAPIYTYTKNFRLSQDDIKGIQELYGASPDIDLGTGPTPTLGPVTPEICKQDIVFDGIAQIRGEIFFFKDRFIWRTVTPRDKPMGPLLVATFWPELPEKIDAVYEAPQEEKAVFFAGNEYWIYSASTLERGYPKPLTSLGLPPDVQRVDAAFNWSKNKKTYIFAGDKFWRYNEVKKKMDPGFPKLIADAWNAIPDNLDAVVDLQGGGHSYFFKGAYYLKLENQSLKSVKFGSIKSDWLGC

T2: MMP1 (Homo sapiens, UniProt P03956)
T2 sequence (P03956 100-469): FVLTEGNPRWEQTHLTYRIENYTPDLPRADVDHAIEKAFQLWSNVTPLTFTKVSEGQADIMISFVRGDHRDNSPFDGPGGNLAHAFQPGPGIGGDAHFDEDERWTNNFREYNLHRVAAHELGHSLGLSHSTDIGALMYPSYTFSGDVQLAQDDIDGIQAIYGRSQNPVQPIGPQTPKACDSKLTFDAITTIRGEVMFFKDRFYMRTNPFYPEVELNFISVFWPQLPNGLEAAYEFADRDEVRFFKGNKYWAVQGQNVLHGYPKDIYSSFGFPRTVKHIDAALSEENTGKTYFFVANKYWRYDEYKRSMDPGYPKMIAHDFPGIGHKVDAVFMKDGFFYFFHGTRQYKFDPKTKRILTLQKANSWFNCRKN

B1: MFK23: fusion peptide having sequential links of mdhFas-1, MMP2 substrate GPLGVRG (SEQ ID NO: 5), and QERGDSLA (SEQ ID NO: 10) (protein)
chain: QAMPPEELNKLLANAKELTNILKYHIGDEILVSGGIGALVRLKSLQGDKLEVSSKNNVVSVNKEPVAETDIMEFGPLGVRGVDGQERGDSLAGLE
modifications: MFK23
B2: MFK24: fusion peptide having sequential links of mdhFas-1, MMP1 substrate GPQGIAG (SEQ ID NO: 6), and QERGDSLA (SEQ ID NO: 10) (protein)
chain: B1 chain with L77Q, V79I, R80A
modifications: MFK24

Legend:
MMP2 = target: T1, MMP2; assay: Enzymatic digestion test, MMP2; assay type: biochemical; conditions: 3 ug peptide, MMP2 100, 200, 800 ng, 37° C. 4 hours
Method: (§1) 3 ug of synthesized mdhFas-1-MMPsubstrate structure modified protein, together with MMP1 (5 ng, 10 ng and 50 ng), MMP2 (100 ng, 200 ng and 800 ng), MMP3 (10 ng, 50 ng and 100 ng), cathepsin D (5 ng, 10 ng and 50 ng), cathepsin L (100 ng, 200 ng and 800 ng), and cathepsin K (10 ng, 50 ng and 100 ng), was mixed with enzyme buffer (150 mM NaCl, 5 mM. CaCl2, 20 mM Tris-HCl pH7.5), and reacted at 37° C. for 4 hours. The resultant product was subjected to electrophoresis through 15% polyacrylamide gel, transferred to a Nitrocellulose Membrane (Schleicher & Schuell), blocked at room temperature for 1 hour with TBST solution containing 3% BSA (20 mmole/L Tris-HCl, 137 mmole//l NaCl, 0.1% Tween-20), washed TBST solution three times (each for 10 minutes), and reacted with primary antibody (anti-Histidine or anti-Bigh3) for 1 hour. The resultant product was washed with TBST solution three times (each for 10 minutes), reacted with a secondary antibody conjugated to horseradish peroxidase (HRP) for 1 hour, washed TBST solution three times (each for 10 minutes), and visualized by ECL (Amersham Biosciences, UK) so as to detect the change in the amount of mdhFas-1-MMPsubstrate-RGD structural peptide.

[1] = tested on: foot tissue of CIA mouse (Synovial membrane, cartilage, bones; CD31, ICAM-1); assay: Histologic and immunohistochemistry test on foot tissue of CIA mouse; assay type: in vivo; conditions: CIA mouse foot tissue, 50th day, FIGS. 18 and 20
Method: In order to determine the action mechanism of an arthritis therapeutic effect in a CIA model, on the 50th day following the second injection of the bovine type 2 collagen (after 4 weeks from the onset (the 23rd day) of arthritis following the second injection of the bovine type 2 collagen), foot tissues of treatment groups were separated and subjected to histologic analysis. Then, in the tissues, a change in the expression of inflammatory mediators was examined.
A tissue sample was prepared by the following process. Skin on the foot tissue was removed. Then, the tissue was fixed in 10% formalin solution for 2 days, and demineralized in 10% EDTA solution. The demineralized tissue was subjected to a dehydrating process and a clearing process, paraffin-embedded, and was made into a fragment with a thickness of 3 um by a microtome. The tissue fragment was deparaffinized and re-dehydrated by 100% xylene and ethanol, and then non-specific peroxidase within the tissue was blocked by a solution of 0.3% hydrogen peroxide dissolved in 100% methanol.
In order to carry out an immunohistochemistry test, binding of non-specific protein was blocked by 5% BSA. Then, the tissue was cultured, together with each primary antibody (as endothelial cell markers, an antibody to CD31, and an antibody to ICAM-1 (intercellular adhesion molecule-1)), at 4° C. for 12 to 14 hours, and washed with washing buffer (0.1% BSA, 0.2% gelatin, 0.05% saponin). It was cultured together with a secondary antibody labeled with biotin at room temperature for 30 minutes, was washed, reacted with Vectastatin ABC kit (Vector Laboratories, U.S.), and was mounted with Eukitt mounting media (Fluka, Germany) for observation.

cathepsin L = cathepsin L (Homo sapiens, UniProt P07711); assay: Enzymatic digestion test, cathepsin L; assay type: biochemical; conditions: 3 ug peptide, cathepsin L 100, 200, 800 ng, 37° C. 4 hours
Sequence of cathepsin L (P07711 114-333, species assumed): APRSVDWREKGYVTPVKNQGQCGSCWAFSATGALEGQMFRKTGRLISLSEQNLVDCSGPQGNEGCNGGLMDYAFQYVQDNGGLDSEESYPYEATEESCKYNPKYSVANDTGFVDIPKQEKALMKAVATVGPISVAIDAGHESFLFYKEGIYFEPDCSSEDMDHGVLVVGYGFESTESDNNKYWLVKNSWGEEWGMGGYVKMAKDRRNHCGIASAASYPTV
Method: as §1

MMP1 = target: T2, MMP1; assay: Enzymatic digestion test, MMP1; assay type: biochemical; conditions: 3 ug peptide, MMP1 5, 10, 50 ng, 37° C. 4 hours
Method: as §1

NIH3T3 = assay: βig-h3-mediated cell migration test (transwell), NIH3T3; assay type: cell-based, mouse; conditions: 7 hours
Method: In the lower compartment of a transwell filter having an 8 um hole size allowing cells to be migrated, βig-h3 was cultured at 4° C. for 12 to 14 hours and coated. In DMEM+0.5% BSA culture medium, NIH3T3 was introduced, and administered with MFK23, MFK24 or MFK25 at concentrations, followed by mixing. The resultant mixture was cultured at 37° C. for 30 minutes, inoculated into the upper chamber of the coated well, and cultured for 7 hours at 37° C. Then, the cells migrated to the lower compartment of the filter were fixed by paraformaldehyde, and strained by a crystal violet. The cells […] remaining in the upper chamber were wiped out and the number of cells migrated to the lower compartment was microscopically counted.

cathepsin D = cathepsin D (Homo sapiens, UniProt P07339); assay: Enzymatic digestion test, cathepsin D; assay type: biochemical; conditions: 3 ug peptide, cathepsin D 5, 10, 50 ng, 37° C. 4 hours
Sequence of cathepsin D (P07339 65-412, species assumed): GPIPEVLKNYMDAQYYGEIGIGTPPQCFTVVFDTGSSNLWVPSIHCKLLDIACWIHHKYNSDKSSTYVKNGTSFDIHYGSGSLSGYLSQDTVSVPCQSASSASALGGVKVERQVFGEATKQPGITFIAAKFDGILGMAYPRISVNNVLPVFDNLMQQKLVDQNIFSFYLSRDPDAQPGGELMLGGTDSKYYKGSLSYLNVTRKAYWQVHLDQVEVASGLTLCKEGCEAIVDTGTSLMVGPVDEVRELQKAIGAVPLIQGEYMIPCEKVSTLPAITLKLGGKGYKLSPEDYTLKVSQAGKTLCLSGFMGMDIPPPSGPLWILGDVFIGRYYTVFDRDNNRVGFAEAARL
Method: as §1

Molecule	cleavage through treatment with MMP-2 (MMP2)	deformation of cartilage and bones (HE stain) [1]	proliferation of a Synovial membrane cell (HE stain) [1]	cleavage through treatment with cathepsin L (cathepsin L)	cleavage through treatment with MMP-1 (MMP1)	βig-h3-mediated cell migration (NIH3T3)	cleavage through treatment with cathepsin D (cathepsin D)
B1	concentration-dependently cleaved	reduced the deformation of cartilage and bones	inhibited the proliferation of a Synovial membrane cell	not cleaved	not cleaved	inhibited the cell migration; also recorded: concentration-dependently inhibited	not cleaved
B2	not cleaved	reduced the deformation of cartilage and bones	inhibited the proliferation of a Synovial membrane cell	not cleaved	concentration-dependently cleaved	inhibited the cell migration; also recorded: concentration-dependently inhibited	not cleaved
